Data: article PMC10350922, “Allosteric Inhibitors of Macrophage Migration Inhibitory Factor (MIF) Interfere with Apoptosis-Inducing Factor (AIF) Co-Localization to Prevent Parthanatos”

Biological target: MIF (ZP307-labeled) (human, UniProt P14174 2-115)
Test: competition; competes with PA20-Q1, dose-dependent; 5 mM Mg2+; 100 mM Tris, 5 mM MgCl2, 5 mM KCl, pH 8.2; 1 uM labeled MIF, 1 uM PA20-Q1; inhibitor preincubation at rt
Settings: protein: recombinant; tags: C-terminal His-tagged and untagged both made; chain copies: 3; single strand

AAAAAAAAAAAAAAAAAAAA (ssDNA) [PA20]: binds.
